Test results: patent US20050282743A1, “Molecular interactions in cells” (Arbor Vita Corporation, priority 2001, published 2005)

Key:
Assay in all cases: G' assay
[1] = biological target: T1, GST-KIAA1526 PDZ domain 1 (Homo sapiens (Human)), Q9P202
T1 chain: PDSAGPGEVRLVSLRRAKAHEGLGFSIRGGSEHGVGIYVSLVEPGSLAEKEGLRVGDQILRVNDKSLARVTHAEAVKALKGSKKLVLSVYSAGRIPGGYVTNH

[2] = biological target: GST-DLG1 PDZ domains 1, 2 (Homo sapiens), Q12959
[3] = biological target: GST-KIAA1634 PDZ domain 1 (Homo sapiens (Human)), Q5TCQ9
[4] = biological target: T2, GST-MINT1 PDZ domains 1, 2, Q02410
T2 chain: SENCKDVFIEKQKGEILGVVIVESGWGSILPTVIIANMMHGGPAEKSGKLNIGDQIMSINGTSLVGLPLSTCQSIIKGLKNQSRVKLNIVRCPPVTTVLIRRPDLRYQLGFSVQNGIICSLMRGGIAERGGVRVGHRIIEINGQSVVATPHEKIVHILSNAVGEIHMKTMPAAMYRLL

[5] = biological target: T3, GST-MUPP1 PDZ domain 10 (Homo sapiens (Human)), O75970
T3 chain: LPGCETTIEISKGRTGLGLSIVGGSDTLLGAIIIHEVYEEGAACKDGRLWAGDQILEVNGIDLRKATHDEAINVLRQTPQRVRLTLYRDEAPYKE

[6] = biological target: T4, GST-MINT1 PDZ domain 2 (Mus musculus (Mouse)), B2RUJ5
T4 chain: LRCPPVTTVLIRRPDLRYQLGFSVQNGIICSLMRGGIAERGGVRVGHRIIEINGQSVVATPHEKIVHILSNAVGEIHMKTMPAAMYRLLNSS

[7] = biological target: T5, GST-INADL PDZ domain 8 (Homo sapiens (Human)), Q8NI35
T5 chain: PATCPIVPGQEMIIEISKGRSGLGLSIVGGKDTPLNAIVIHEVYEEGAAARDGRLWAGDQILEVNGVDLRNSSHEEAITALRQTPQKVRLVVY

[8] = biological target: T6, GST-LIM-RIL PDZ domain 1 (Homo sapiens (Human)), P50479
T6 chain: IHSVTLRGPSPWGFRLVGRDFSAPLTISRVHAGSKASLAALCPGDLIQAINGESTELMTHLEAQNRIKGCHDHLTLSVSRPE

[9] = biological target: T7, GST-KIAA0807(S) PDZ domain 1 (Homo sapiens (Human)), Q6P0Q8
T7 chain: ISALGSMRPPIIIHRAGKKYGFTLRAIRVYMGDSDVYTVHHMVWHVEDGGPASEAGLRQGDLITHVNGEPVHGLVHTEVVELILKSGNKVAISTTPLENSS

[10] = biological target: GST-KIAA807 [GST: P08515]
[11] = biological target: T8, GST-KIAA0973 PDZ domain 1 (Homo sapiens (Human)), Q9Y2H9
T8 chain: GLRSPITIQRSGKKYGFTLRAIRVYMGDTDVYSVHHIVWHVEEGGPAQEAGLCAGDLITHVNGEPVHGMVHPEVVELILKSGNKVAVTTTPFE

[12] = biological target: GST-BAI-1 Associated Protein PDZ domain 2 (Mus musculus (Mouse)), Q6RHR9
[13] = biological target: T9, GST-Shank 1 PDZ domain 1 (Homo sapiens (Human)), Q9UPX8
T9 chain: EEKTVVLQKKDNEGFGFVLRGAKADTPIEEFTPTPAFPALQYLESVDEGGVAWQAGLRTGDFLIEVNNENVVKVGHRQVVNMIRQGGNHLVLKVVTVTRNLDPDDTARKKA

[14] = biological target: GST-PAR3 PDZ domain 3 (Homo sapiens (Human)), Q8TEW0
[15] = biological target: T10, GST-APXL-1 PDZ domain 1 (Homo sapiens (Human)), Q13796
T10 chain: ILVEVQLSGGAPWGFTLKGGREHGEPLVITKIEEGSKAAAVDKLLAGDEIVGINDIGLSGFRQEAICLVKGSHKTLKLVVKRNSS

[16] = biological target: T11, GST-AIPC PDZ domain 1 (Homo sapiens (Human)), O15018
T11 chain: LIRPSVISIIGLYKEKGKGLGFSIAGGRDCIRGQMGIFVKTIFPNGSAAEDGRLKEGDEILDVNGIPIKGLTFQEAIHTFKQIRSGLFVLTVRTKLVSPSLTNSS

[17] = biological target: T12, GST-PTPL1 PDZ domain 4 (Homo sapiens (Human)), Q12923
T12 chain: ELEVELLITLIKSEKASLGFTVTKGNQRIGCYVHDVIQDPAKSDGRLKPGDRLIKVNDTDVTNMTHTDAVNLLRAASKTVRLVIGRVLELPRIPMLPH

[18] = biological target: T13, GST-PTPL1 PDZ domain 2 (Homo sapiens (Human)), Q12923
T13 chain: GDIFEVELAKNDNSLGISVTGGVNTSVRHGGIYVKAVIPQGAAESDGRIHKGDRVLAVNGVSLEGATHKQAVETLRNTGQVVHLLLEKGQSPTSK

[19] = biological target: T14, GST-KIAA1634 PDZ domain 2 (Homo sapiens (Human)), Q5TCQ9
T14 chain: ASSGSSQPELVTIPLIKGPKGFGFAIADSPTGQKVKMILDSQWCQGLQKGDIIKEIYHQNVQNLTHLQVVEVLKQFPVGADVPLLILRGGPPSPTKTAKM

[20] = biological target: GST-PSD95 PDZ domains 1, 2, 3 (Homo sapiens), P78352
[21] = biological target: T15, GST-NeDLG PDZ domains 1, 2, Q92796
T15 chain: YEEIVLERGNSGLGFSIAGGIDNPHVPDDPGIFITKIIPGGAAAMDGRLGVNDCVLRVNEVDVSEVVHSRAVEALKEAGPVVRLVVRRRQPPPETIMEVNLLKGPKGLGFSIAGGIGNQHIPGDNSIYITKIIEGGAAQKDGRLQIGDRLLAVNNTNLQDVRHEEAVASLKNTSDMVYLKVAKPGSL

[22] = biological target: T16, GST-TIP1 PDZ domain 1 (Table 9 insert) (Homo sapiens (Human)), O14907
T16 chain: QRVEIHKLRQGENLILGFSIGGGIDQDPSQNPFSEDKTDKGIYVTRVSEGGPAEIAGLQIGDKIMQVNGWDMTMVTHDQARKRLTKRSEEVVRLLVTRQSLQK

[23] = biological target: T17, GST-KIAA0382 PDZ domain 1 (Canis lupus familiaris (Dog) (Canis familiaris)), A0A8I3
T17 chain: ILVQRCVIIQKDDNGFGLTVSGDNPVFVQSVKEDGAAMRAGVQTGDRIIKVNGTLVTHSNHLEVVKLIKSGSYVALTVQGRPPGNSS

[24] = biological target: GST-KIAA0147 PDZ domain 1 (Homo sapiens (Human)), Q14160
[25] = biological target: T18, GST-DLG1 PDZ domain 2 (Homo sapiens), Q12959
T18 chain: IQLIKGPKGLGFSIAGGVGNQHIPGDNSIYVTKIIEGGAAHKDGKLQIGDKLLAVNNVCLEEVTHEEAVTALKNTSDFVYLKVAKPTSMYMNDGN
Note: key of the grades not given here.

Sequence of GST-KIAA807 [GST: P08515] (P08515 whole entry, the tested form may be a part): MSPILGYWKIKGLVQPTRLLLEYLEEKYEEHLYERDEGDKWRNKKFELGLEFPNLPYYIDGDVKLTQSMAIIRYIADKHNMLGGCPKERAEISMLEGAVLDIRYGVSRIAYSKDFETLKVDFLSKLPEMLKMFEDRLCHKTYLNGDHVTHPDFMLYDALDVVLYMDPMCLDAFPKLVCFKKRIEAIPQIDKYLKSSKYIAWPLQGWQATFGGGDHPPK
Sequence of GST-PAR3 PDZ domain 3 (Homo sapiens (Human)), Q8TEW0 (Q8TEW0 579-681): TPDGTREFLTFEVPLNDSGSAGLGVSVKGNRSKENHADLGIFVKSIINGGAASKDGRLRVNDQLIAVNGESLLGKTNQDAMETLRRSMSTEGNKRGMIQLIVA
Sequence of GST-KIAA1634 PDZ domain 1 (Homo sapiens (Human)), Q5TCQ9 (Q5TCQ9 401-502): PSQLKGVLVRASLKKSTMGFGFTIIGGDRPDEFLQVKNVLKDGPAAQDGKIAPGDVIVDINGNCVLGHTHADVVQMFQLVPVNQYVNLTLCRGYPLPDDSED
Sequence of GST-KIAA0147 PDZ domain 1 (Homo sapiens (Human)), Q14160 (Q14160 other isoform, or with tags, fused parts or gaps): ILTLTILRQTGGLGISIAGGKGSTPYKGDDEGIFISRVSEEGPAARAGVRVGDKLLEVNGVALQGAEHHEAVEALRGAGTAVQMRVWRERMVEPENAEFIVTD
Sequence of GST-PSD95 PDZ domains 1, 2, 3 (Homo sapiens), P78352 (P78352 62-395): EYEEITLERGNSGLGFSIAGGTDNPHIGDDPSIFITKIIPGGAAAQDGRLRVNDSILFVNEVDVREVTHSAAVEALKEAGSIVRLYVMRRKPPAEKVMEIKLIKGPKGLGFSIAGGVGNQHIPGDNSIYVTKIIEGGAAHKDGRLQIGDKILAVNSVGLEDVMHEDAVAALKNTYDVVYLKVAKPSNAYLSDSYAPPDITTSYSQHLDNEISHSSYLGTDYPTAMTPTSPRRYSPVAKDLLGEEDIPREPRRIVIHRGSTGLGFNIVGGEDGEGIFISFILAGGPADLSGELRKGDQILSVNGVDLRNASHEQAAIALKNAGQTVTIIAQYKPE
Sequence of GST-BAI-1 Associated Protein PDZ domain 2 (Mus musculus (Mouse)), Q6RHR9 (Q6RHR9 455-558): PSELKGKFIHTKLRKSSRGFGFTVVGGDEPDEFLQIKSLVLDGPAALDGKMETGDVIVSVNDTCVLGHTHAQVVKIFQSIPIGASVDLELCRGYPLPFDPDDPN

B1: GAIP (G-alpha interacting protein) RGS 19 (peptide)
peptide: SSPTYRALLLQGPSQSSSEA
modifications: not checked
B1 was tested, and the Classification [1] was 1 A450 class.

B2: claudin 10 (peptide)
peptide: GGEDFKTTNPSKQFDKNAYV
modifications: not checked
Binder B2 has a Classification [2] of 1 A450 class and a Classification [3] of 1 A450 class.

B3: claudin 9 (peptide)
peptide: LGYSIPSRSGASGLDKRDYV
modifications: not checked
With B3 the Classification [4] was 1 A450 class.

B4: c-kit receptor (peptide)
peptide: INSVGSTASSSQPLLVHDDV
modifications: not checked
Binder B4 has a Classification [5] of 1 A450 class, a Classification [6] of 1 A450 class and a Classification [7] of 1 A450 class. It also gave a Classification [8] of 1 A450 class.

B5: CD6 (peptide)
peptide: SPQPDSTDNDDYDDISAA
modifications: not checked
Work on B5 yielded a Classification [9] of 1 A450 class and a Classification [10] of 1 A450 class.

B6: TRAF2 (peptide)
peptide: NSYVRDDAIFIKAIVDLTGL
modifications: not checked
In the case of B6, the Classification [9] is reported as 4 A450 class, the Classification [10] is reported as 2 A450 class and the Classification [11] is reported as 1 A450 class.

B7: Clasp-5 (peptide)
peptide: RDSFHRSSFRKAETQLSQGS
modifications: not checked
For B7, the Classification [12] was 1 A450 class, the Classification [9] was 1 A450 class and the Classification [10] was 1 A450 class. It also gave a Classification [13] of 1 A450 class.

B8: parathyroid hormone receptor 2 (peptide)
peptide: RPMESNPDTEGAQGETEDVL
modifications: not checked
B8 gave a Classification [14] of 1 A450 class and a Classification [15] of 1 A450 class.

B9: CFTCR (cystic fibrosis transmembrane conductance regulator) (peptide)
peptide: KPQIAALKEETEEEVQDTRL
modifications: not checked
B9 was tested, and the Classification [9] was 2 A450 class, the Classification [10] was 1 A450 class and the Classification [13] was 1 A450 class.

B10: claudin 18 (peptide)
peptide: DGGARTEDEVQSYPSKHDYV
modifications: not checked
For B10, the Classification [4] was 1 A450 class.

B11: Clasp-1 (peptide)
peptide: VISKATPALPTVSISSSAEV
modifications: not checked
B11 gave a Classification [4] of 1 A450 class, a Classification [16] of 1 A450 class and a Classification [9] of 1 A450 class. For the same binder, the Classification [10] was 1 A450 class.

B12: C5 Anaphylatoxin receptor (peptide)
peptide: ESKSFTRSTVDTMAQKTQAV
modifications: not checked
Binder B12 has a Classification [17] of 1 A450 class.

B13: serotonin receptor 5-HT-2C (peptide)
peptide: ENLELPVNPSSVVSERISSV
modifications: not checked
In the case of B13, the Classification [5] is reported as 1 A450 class and the Classification [7] is reported as 1 A450 class.

B14: NMDA R2C (peptide)
peptide: HPTDITGLPNLSDPSVSTVV
modifications: not checked
With B14 the Classification [18] was 1 A450 class, the Classification [2] was 1 A450 class and the Classification [19] was 1 A450 class. It also gave a Classification [20] of 1 A450 class and a Classification [21] of 2 A450 class.

B15: ropporin (peptide)
peptide: GPDGIITVNDFTQNPRVQLE
modifications: not checked
For B15, the Classification [22] was 1 A450 class.

B16: claudin 7 (peptide)
peptide: KAGYRAPRSYPKSNSSKEYV
modifications: not checked
With B16 the Classification [4] was 4 A450 class.

B17: claudin 1 (peptide)
peptide: SYPTPRPYPKPAPSSGKDYV
modifications: not checked
With B17 the Classification [6] was 1 A450 class and the Classification [7] was 1 A450 class.

B18: CAPON (carboxyl-terminal PDZ ligand of neuronal nitric oxide synthase) mRNA (peptide)
peptide: LLNVLQRQELGDGLDDEIAV
modifications: not checked
B18 was tested, and the Classification [17] was 1 A450 class, the Classification [16] was 1 A450 class and the Classification [9] was 1 A450 class. The Classification [10] was 1 A450 class, the Classification [14] was 1 A450 class and the Classification [15] was 1 A450 class.

B19: CDw128B (peptide)
peptide: KDSRPSFVGSSSGHTSTTL
modifications: not checked
In the case of B19, the Classification [9] is reported as 5 A450 class, the Classification [23] is reported as 2 A450 class and the Classification [10] is reported as 5 A450 class. It also gave a Classification [13] of 3 A450 class.

B20: RhoGAP 1 (PTPL1-associated) (peptide)
peptide: PRLKRMQQFEDLEDEIPQFV
modifications: not checked
With B20 the Classification [17] was 2 A450 class.

B21: RA-GEF (ras/rap1A-assoc-GEF) (peptide)
peptide: PYQSQGFSTEEDEDEQVSAV
modifications: not checked
For B21, the Classification [18] was 4 A450 class, the Classification [19] was 2 A450 class and the Classification [24] was 1 A450 class.

B22: alpha-1-syntrophin (peptide)
peptide: IVFIIHSFLSAKVTRLGLLA
modifications: not checked
With B22 the Classification [9] was 1 A450 class.

B23: GLUR7 (metabotropic glutamate receptor) (peptide)
peptide: VDPNSPAAKKKYVSYNNLVI
modifications: not checked
With B23 the Classification [14] was 2 A450 class, the Classification [25] was 1 A450 class and the Classification [3] was 1 A450 class.

B24: muscarinic Ach receptor M4 (peptide)
peptide: QQYQQRQSVIFHKRAPEQAL
modifications: not checked
B24 gave a Classification [16] of 1 A450 class, a Classification [9] of 1 A450 class and a Classification [10] of 1 A450 class. The Classification [15] was 1 A450 class.
